Assay results taken from article PMC10087246.

Molecular target: SCO3201 (amino acids 21–216), TetR/AcrR-like regulator from Streptomyces coelicolor (Streptomyces coelicolor) (UniProt Q9KYU4)
Assay: SAXS

“SCO3201 (amino acids 21–216), TetR/AcrR-like regulator from Streptomyces coelicolor (from UniProt Q9KYU4 21-216) (domain or fragment)” showed a stoichiometry N of 2.
